The values that follow come from PMC3434177, “Agnathan VIP, PACAP and Their Receptors: Ancestral Origins of Today's Highly Diversified Forms” (PLoS ONE, 2012).

For one test, the system named is hfVPACa. In words: cAMP accumulation (LANCE cAMP assay) in COS-7 cells transiently transfected with hfVPACa. It counts as cell-based, inshore hagfish (Eptatretus burgeri). The conditions noted are these: 100 nM peptide, 30 min, at least 4 experiments in duplicates. On the procedure:
To investigate the functional properties of the proteins encoded by the agnathan VPAC receptor cDNAs, various vertebrate secretin superfamily peptides at a 100 nM concentration were employed to determine their abilities to stimulate cAMP production in transiently transfected COS-7 cells with hfVPACa or hfVPACb. As jlpVPAC was indicated to be orthologous to hfVPACa by phylogenetic analysis, only the hfVPAC receptors were tested (Figure 4). […] The hfVPACa was further studied using graded concentrations of VIP/PACAP peptides from various vertebrates including sea lamprey (Figure 4C and 4D).
Figure 4 Functional characterization of hfVPACa and hfVPACb. Intracellular cAMP accumulation in response to 100 nM vertebrate superfamily peptides on COS-7 cells transiently transfected with (A) hfVPACa and (B) hfVPACb. Peptide species: slp, sea lamprey; gf, goldfish; h, human; o, ovine; zf, zebrafish; x, Xenopus; ct, catfish and cp, carp. Data represent the mean ± S.E.M. of at least 4 experiments performed in duplicates, p<0.01 is denoted by “*”. […] Data are expressed as the mean ± S.E.M. of at least 6 experiments performed in duplicates. […] Data are expressed as the mean ± S.E.M. of at least 4 experiments. RFU, relative fluorescence units. (G) Shown are representative of confocal fluorescence images of CHO-K1 cells expressing (i) hfVPACa-pEYFP, (ii) hfVPACb-pEYFP and (iii) pEYFP-N1.
African green monkey kidney (COS-7) and Chinese hamster ovary (CHO-K1) cells (ATCC, Manassas, VA) were cultured in 10% FBS/100 U/ml Penicillin/[…] Streptomycin supplemented DMEM and MEM respectively in a 5% (v/v) CO2 humidified chamber at 37°C and passaged twice per week using Trypsin-EDTA (TE) (Invitrogen) on Nunc^TM Surface (Nunc, Denmark) tissue culture flasks. […] For cAMP assays, COS-7 cells were stimulated for 30 mins with either fixed ([…]) or varying (10^−6 to 10^−12 M) concentrations before taking measurements using the LANCE cAMP assay kit (Perkin-Elmer, Waltham, MA) in the Victor x4 multilabel reader (Perkin-Elmer) according to the manufacturer's protocol. […]

The target of test [1] is inshore hagfish (Eptatretus burgeri) VPAC receptor a (inshore hagfish (Eptatretus burgeri)).
For test [2] the target is unchanged. The source holds these as a separate data set.
Test [3] addresses inshore hagfish (Eptatretus burgeri) VPAC receptor b (inshore hagfish (Eptatretus burgeri)).

GLP-1: in the test with hfVPACa, the “ability to stimulate cAMP production at a fixed peptide concentration” value (“ability to stimulate cAMP production” below) is reported as “weakly or unable to do so”.

As for GLP-2, the “ability to stimulate cAMP production” value in the test on hfVPACa was “weakly or unable to do so”.

Consider “glucagon: Glucagon (goldfish), synthetic peptide (HSEGTFSNDYSKYLETRRAQDFVEWLMNS; Glucagon; UniProt P79695 50-78, looked up)”, for which, in the test with hfVPACa, the “ability to stimulate cAMP production” value is recorded as “weakly or unable to do so”.

human VIP (peptide) came in with an intracellular cAMP accumulation (LANCE cAMP assay) in COS-7 cells transiently expressing hfVPACa, graded peptide concentrations 10^-6 to 10^-12 M, EC50 in test [1] of 1.74 nM.

As for ovine PACAP-27 (peptide), in test [1], the intracellular cAMP accumulation (LANCE cAMP assay) in COS-7 cells transiently expressing hfVPACa, graded peptide concentrations 10^-6 to 10^-12 M, EC50 is 0.895 nM.

In the case of sea lamprey PACAP-27 (peptide), the intracellular cAMP accumulation (LANCE cAMP assay) in COS-7 cells transiently expressing hfVPACa, graded peptide concentrations 10^-6 to 10^-12 M, EC50 in test [1] came out at 5.92 nM. Also, the intracellular calcium elevation (Fluo-4 calcium assay) in CHO-K1 cells transiently expressing hfVPACa, graded peptide concentrations 10^-6 to 10^-12 M, EC50 in test [2] was found to be 1.39 nM. Besides, in test [3], the intracellular calcium elevation (Fluo-4 calcium assay) in CHO-K1 cells transiently expressing hfVPACb, graded peptide concentrations 10^-6 to 10^-12 M, EC50 was 27.8 nM.
